Source: US10456446B2, “Use of human small leucine zipper protein in osteogenesis procedure” (Korea University Research and Business Foundation, priority 2013, dated 2019)

Assays:
[1] = test system: sLZIP TG mouse embryos; assay: Ossification in vivo, alcian blue and alizarin red staining of sLZIP TG mouse embryos on E17.5; details: E17.5, compared with wild type littermate
Source text: In order to generate human sLZIP transgenic (TG) mice, sLZIP genes were cloned into a pCMV-flag expression vector. The sLZIP TG mice were generated by Macrogen, Inc (Seoul, Korea). Transgenic founders were mated with wild type C57BL/6 mice to produce F1 heterozygotes. F1-F4 generations were genetically screened for transgenes at an age of 2 weeks old. The following two primers were used to amplify genomic DNA in order to identify wild type and TG mice: 5′-GGACGATGATGACAAGGACT-3′ (SEQ ID NO: 25) and 5′-GTCAGAGGAGTACATGCTGCT-3′(SEQ ID NO: 26).
Therefore, in order to characterize a potential role of sLZIP in the transcriptional activity of Runx2 by inhibiting the transcriptional activity of PPARγ2, the transcriptional activity of Runx2 was examined. For this purpose, 293T cells were temporarily transfected with Runx2 (0.5 μg), β-galactosidase (0.1 μg), 6 copies of Runx2 response elements (0.2 μg) and sLZIP at different contents (0.1 μg to 0.5 μg) (FIG. 7A). PPARγ2 (0.5 μg), β-galactosidase, Runx2, 6 copies of Runx2 response elements and sLZIP (0.5 μg) were expressed in the 293T cells (FIG. 7B). 293T cells were temporarily transfected with HDAC3 (0.5 μg), Runx2, β-galactosidase, 6 copies of Runx2 response elements and sLZIP at different contents (0.25 and 0.5 μg) (FIG. 7C). A promoter activity was measured by luciferase analysis. […]

[2] = molecular target: T1, PPARγ2 (Mus musculus, UniProt P37238); assay: PPARγ2 transcriptional activity in FABP4-Luc stable C3H10T1/2 cells differentiated into adipocytes; type: cell-based; details: sLZIP-expressing adenovirus, differentiated into adipocytes for 4 days
T1 construct: endogenous in cells
T1 sequence (P37238 1-505): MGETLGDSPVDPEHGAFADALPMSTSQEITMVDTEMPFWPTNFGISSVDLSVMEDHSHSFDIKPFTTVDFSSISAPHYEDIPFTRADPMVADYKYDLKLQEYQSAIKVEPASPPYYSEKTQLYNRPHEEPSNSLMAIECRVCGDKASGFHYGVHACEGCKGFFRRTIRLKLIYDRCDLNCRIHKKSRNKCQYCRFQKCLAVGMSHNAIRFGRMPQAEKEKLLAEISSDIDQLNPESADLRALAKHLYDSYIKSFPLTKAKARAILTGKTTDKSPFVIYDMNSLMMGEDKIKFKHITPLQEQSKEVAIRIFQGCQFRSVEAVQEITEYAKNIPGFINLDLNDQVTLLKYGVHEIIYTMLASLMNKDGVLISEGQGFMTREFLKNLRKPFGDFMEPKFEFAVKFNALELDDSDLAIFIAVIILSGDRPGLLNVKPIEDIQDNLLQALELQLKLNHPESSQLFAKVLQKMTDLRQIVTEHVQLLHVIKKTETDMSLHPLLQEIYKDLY

[3] = molecular target: T2, PPARγ2 (Homo sapiens, UniProt P37231); assay: Fluorescence microscopy, subcellular localization with PPARγ2 in C3H10T1/2 cells; type: cell-based; details: GFP-PPARγ2 and Flag-sLZIP in C3H10T1/2 cells
T2 construct: expressed in transfected cells; host or cells: 293T
T2 sequence (P37231 1-505): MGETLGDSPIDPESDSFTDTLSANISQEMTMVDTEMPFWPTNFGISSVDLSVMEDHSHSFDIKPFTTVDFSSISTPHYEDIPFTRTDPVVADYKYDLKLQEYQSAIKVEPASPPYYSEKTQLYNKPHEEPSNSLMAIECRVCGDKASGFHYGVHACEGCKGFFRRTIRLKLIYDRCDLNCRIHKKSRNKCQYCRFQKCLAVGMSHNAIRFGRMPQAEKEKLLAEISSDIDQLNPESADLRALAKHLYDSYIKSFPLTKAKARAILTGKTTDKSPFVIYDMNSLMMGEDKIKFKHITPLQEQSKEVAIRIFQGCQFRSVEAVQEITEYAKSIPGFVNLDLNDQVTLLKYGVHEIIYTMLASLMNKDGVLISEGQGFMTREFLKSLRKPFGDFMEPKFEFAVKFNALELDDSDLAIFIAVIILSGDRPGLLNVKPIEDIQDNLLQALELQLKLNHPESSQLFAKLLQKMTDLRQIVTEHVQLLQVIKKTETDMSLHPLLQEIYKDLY
Procedure: C3H10T1/2 cells were transiently ci-transfected with Flag-sLZIP, GFP-PPARγ2 or GFP-sLZIP, and HDAC3 was grown on cover slip. After 24 hours, the cells were fixed with 4% paraformaldehyde for 10 minutes and permeabilized 0.2% Triton-X 100 for 5 minutes. The cells were incubated with 1% BSA for one hour, and then incubated with anti-Flag and anti-HDAC3 antibodies overnight at 4° C. The cells were washed with PBS, and then were incubated with Texas Red-labeled antibodies for 2 hours. A cover slide was washed with PBS, and mounted on and examined using a LSM 510 META confocal microscopy (Carl Zeiss, Jena, Germany).
In order to examine whether the transcriptional activity of PPARγ2 is regulated by interaction with sLZIP, interaction between sLZIP and PPARγ2 was examined. For this purpose, 293T cells were transfected with GST-sLZIP and Myc-PPARγ2. Cell lysates were obtained and GST pull-down analysis was performed using a glutathione 4B bead. A protein complex was analyzed in SDS-PAGE and then immunoblotted with specific antibodies (FIG. 2A). […] Proteins bound to the bead were analyzed in SDS-PAGE, and then immunoblotted with anti-PPARγ2 and anti-His antibodies (FIG. 2C). GFP-PPARγ2 and Flag-sLZIP constructs were expressed in C3H10T1/2 cells, and analyzed using mouse anti-Flag and Texas Red-labeled anti-mouse antibodies under a fluorescence microscope. […]

B1: sLZIP: human small leucine-zipper protein, isoform of LZIP, 354 amino acids, no transmembrane domain, GenBank FJ263669, SEQ ID NO: 1 (protein, listed as Homo sapiens)
chain: MELELDAGDQDLLAFLLEESGDLGTAPDEAVRAPLDWALPLSEVPSDWEVDDLLCSLLSPPASLNILSSSNPCLVHHDHTYSLPRETVSMDLESESCRKEGTQMTPQHMEELAEQEIARLVLTDEEKSLLEKEGLILPETLPLTKTEEQILKRVRRKIRNKRSAQESRRKKKVYVGGLESRVLKYTAQNMELQNKVQLLEEQNLSLLDQLRKLQAMVIEISNKTSSSSMYSSDTRGSLPAEHGVLSRQLRALPSEDPYQLELPALQSEVPKDSTHQWLDGSDCVLQAPGNTSCLLHYMPQAPSAEPPLEWPFPDLFSEPLCRGPILPLQANLTRKGGWLPTGSPSVILQDRYSG
ossification of skull and limb [1]: further promoted ossification
transcriptional activity of PPARγ2 (relative luciferase activity) [2]: decreased
subcellular localization of sLZIP and PPARγ2 [3]: localized in the nucleus together with PPARγ2
